Literature values as cited in paper PMC4184475.

Columns and labels:
[1] = target: Cys473 (UniProt position 487, ILIFHCEFSSE); conditions: reduced thiol form (implied); otherwise not stated
[2] = target: Cys106 (UniProt position 106, LIAAICAGPTA); conditions: reduced thiol form (implied); otherwise not stated

Row | Substance | pKa [1] | pKa [2]
1 | Cdc25B phosphatase (M-phase inducer phosphatase 2) (Homo sapiens) | 5.8 | –
2 | DJ-1 (Parkinson disease protein 7) (Homo sapiens) | – | 5.4
